Tests used:
Test in all cases: EMSA; EMSA: 20 mM HEPES pH 7.3, 100 mM KCl, 1 mM MgCl2, 1 mg/ml BSA, 1 mM DTT, 6% glycerol, 0.5 nM 32P substrate, 30 min on ice; 5% native PAGE, 1x TBE, 4°C
C9ORF80 = target: T1, C9ORF80 (human, UniProt Q9NRY2 1-104); details: protein: recombinant, tags: His (pET28a)
T1 sequence: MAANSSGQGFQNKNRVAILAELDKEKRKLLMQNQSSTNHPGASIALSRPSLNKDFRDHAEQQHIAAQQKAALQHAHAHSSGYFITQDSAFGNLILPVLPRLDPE

INTS3FL = INTS3FL (human, UniProt Q68E01-2 1-1042); details: protein: recombinant, tags: GST cleaved (PreScission)
Chain of INTS3FL (Q68E01 other isoform, or with tags, fused parts or gaps): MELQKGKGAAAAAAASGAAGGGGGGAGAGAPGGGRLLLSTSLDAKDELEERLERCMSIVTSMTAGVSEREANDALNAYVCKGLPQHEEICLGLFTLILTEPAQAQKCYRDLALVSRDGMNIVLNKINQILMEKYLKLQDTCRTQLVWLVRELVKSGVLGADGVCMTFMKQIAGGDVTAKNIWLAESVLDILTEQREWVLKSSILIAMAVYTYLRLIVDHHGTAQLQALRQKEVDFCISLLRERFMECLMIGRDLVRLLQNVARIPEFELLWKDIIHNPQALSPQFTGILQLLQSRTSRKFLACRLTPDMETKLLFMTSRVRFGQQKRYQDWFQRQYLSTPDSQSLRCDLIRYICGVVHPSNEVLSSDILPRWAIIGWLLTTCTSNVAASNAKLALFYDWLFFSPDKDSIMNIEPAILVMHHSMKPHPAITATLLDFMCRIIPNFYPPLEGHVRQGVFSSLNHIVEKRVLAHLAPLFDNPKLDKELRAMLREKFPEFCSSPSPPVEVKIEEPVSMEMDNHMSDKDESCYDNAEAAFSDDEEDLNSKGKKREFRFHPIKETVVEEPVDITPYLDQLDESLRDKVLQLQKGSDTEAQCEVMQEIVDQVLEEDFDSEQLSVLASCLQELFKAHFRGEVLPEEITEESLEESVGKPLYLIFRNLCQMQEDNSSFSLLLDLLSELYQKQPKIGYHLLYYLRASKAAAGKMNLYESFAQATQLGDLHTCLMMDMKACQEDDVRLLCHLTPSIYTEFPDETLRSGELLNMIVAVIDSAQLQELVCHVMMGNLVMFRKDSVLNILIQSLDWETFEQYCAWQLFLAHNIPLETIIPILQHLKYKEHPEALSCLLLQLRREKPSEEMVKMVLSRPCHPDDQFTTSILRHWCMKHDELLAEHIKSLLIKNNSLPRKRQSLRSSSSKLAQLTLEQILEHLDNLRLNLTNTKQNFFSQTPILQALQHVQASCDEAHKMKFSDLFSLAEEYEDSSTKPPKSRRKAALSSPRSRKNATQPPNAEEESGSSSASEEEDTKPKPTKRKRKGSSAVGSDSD

[1] = target: INTS3FL in co-expressed complex;hNABP1 (hSSB2);C9ORF80 (human;human;human, UniProt Q68E01-2;Q96AH0;Q9NRY2 1-1042;1-204;1-104, ||); details: protein: recombinant;recombinant;recombinant; tags: GST (pGEX-6P-1); copies: 1;1;1; label: 5'-32P
Chain of INTS3FL in co-expressed complex;hNABP1 (hSSB2);C9ORF80 (Q68E01 other isoform, or with tags, fused parts or gaps ||, chain 1 of 2): as the sequence (Q68E01 other isoform, or with tags, fused parts or gaps) above
Chain of INTS3FL in co-expressed complex;hNABP1 (hSSB2);C9ORF80 (Q96AH0 whole entry, chain 2 of 2): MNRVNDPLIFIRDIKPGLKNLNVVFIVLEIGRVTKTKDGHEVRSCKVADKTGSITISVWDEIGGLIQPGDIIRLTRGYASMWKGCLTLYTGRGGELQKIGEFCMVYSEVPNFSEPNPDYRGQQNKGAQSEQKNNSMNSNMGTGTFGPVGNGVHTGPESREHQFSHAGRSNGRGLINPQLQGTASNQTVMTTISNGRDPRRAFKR

INTS3C = INTS3C (human, UniProt Q68E01-2 514-1042); details: protein: recombinant, tags: His (pET28a), label: 5'-32P
Chain of INTS3C (Q68E01 515-1043): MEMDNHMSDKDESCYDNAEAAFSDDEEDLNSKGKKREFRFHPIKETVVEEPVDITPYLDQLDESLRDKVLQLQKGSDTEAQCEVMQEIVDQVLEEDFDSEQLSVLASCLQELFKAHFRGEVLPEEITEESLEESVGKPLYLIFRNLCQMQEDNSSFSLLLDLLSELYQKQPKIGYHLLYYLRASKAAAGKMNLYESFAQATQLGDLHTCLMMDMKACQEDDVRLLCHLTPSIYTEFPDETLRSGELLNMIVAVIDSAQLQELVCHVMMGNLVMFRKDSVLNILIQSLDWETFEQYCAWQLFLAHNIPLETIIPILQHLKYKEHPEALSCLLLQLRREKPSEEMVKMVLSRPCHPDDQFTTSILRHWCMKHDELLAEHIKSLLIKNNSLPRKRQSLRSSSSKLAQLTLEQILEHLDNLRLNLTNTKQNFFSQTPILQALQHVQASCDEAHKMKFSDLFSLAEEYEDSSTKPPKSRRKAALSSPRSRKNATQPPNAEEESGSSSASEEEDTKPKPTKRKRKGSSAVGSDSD

hNABP1 (hSSB2) = hNABP1 (hSSB2) (human, UniProt Q96AH0 1-204); details: protein: recombinant; tags: His; label: 5'-32P
Chain of hNABP1 (hSSB2) (Q96AH0 whole entry): as the sequence (Q96AH0 whole entry, chain 2 of 2) above

[2] = target: INTS3FL in co-expressed complex;hNABP2 (hSSB1);C9ORF80 (human;human;human, UniProt Q68E01-2;Q9BQ15;Q9NRY2 1-1042;1-211;1-104, ||); details: protein: recombinant;recombinant;recombinant; tags: GST (pGEX-6P-1); copies: 1;1;1; label: 5'-32P
Chain of INTS3FL in co-expressed complex;hNABP2 (hSSB1);C9ORF80 (Q68E01 other isoform, or with tags, fused parts or gaps ||, chain 1 of 2): as the sequence (Q68E01 other isoform, or with tags, fused parts or gaps) above
Chain of INTS3FL in co-expressed complex;hNABP2 (hSSB1);C9ORF80 (Q9BQ15 whole entry, chain 2 of 2): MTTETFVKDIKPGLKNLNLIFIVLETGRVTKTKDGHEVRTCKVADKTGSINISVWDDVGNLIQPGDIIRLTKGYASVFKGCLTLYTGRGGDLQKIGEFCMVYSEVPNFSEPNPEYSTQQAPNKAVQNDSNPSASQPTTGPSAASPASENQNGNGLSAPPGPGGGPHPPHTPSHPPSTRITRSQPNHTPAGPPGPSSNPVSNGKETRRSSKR

hNABP2 (hSSB1) = hNABP2 (hSSB1) (human, UniProt Q9BQ15 1-211); details: protein: recombinant; tags: His; label: 5'-32P
Chain of hNABP2 (hSSB1) (Q9BQ15 whole entry): as the sequence (Q9BQ15 whole entry, chain 2 of 2) above

[3] = label: 5'-32P on one strand, blunt

B1: DNA:RNA hybrid 30-mer (DNA:RNA)
DNA: GAGCTACCAGCTACCCCGTATGTCAGAGAG
RNA: CUCUCUGACAUACGGGGUAGCUGGUAGCUC
C9ORF80; [3]
  binding result: no binding
INTS3FL; [3]
  binding result: no binding

B2: dsRNA 30-mer (dsRNA)
RNA 1: GAGCUACCAGCUACCCCGUAUGUCAGAGAG
RNA 2: B1 RNA
C9ORF80; [3]
  binding result: no binding
INTS3FL; [3]
  binding result: no binding

B3: dT60 (ssDNA)
DNA: TTTTTTTTTTTTTTTTTTTTTTTTTTTTTTTTTTTTTTTTTTTTTTTTTTTTTTTTTTTT
INTS3FL; label: 5'-32P
  binding result: binds

## TTTTTTTTTTTTTTTTTTTTTTTTTTTTTT (ssDNA) [dT30]
[1]
  Kd: 0.6 ± 0.09 µM
C9ORF80; label: 5'-32P
  Kd: 13.2 ± 1.2 µM
INTS3C
  Kd: 7.2 ± 1.2 µM
hNABP1 (hSSB2)
  Kd: 0.15 ± 0.04 µM

## UUUUUUUUUUUUUUUUUUUUUUUUUUUUUU (ssRNA) [rU30]
[2]
  Kd: 0.5 ± 0.07 µM
INTS3FL; label: 5'-32P
  Kd: 5.6 ± 1.2 µM
INTS3C; chain copies: 2
  Kd: 1.2 ± 0.8 µM
hNABP2 (hSSB1)
  Kd: 0.06 ± 0.02 µM

B4: DNA 60-mer (random) (ssDNA)
DNA: ACGCAGTTGAGTATTCTACAGAGTTGGCGTGAGCTACCAGCTACCCCGTATGTCAGAGAG
INTS3FL; label: 5'-32P
  Kd: 6.4 ± 0.9 µM

## GAGCTACCAGCTACCCCGTATGTCAGAGAG (ssDNA) [DNA 30-mer (random)]
INTS3FL; label: 5'-32P
  Kd: 13 ± 0.8 µM

B5: dT90 (ssDNA)
DNA: TTTTTTTTTTTTTTTTTTTTTTTTTTTTTTTTTTTTTTTTTTTTTTTTTTTTTTTTTTTTTTTTTTTTTTTTTTTTTTTTTTTTTTTTTT
C9ORF80; label: 5'-32P
  binding result: binds
INTS3FL; label: 5'-32P
  binding result: binds
